According to the RNAGym collection of RNA variant scans (doi:10.1093/molbev/msab373):

B1: Azoarcus group I ribozyme (parent)
chain: GUGCCUUGCGCCGGGAAACCACGCAAGGGAUGGUGUCAAAUUCGGCGAAACCUAAGCGCCCGCCCGGGCGUAUGGCAACGCCGAGCCAAGCUUCGGCGCCUGCGCCGAUGAAGGUGUAGAGACUAGACGGCACCCACCUAAGGCAAACGCUAUGGUGAAGGCAUAGUCCAGGGAGUGGCGAAAGUCACACAAACCGG

Variants of: B1
Assay: reverse-splicing fitness (ratio to wild type); higher = more active; in vitro selection; Mg2+ level not given
In short: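 An in vitro group I ribozyme library with randomized positions was T7-transcribed and gel-purified. In triplicate, 10 pmol RNA in EPPS pH 7.5 was reacted with 50 pmoles of a 30-nt RNA substrate for 1 h at 37 °C across several added MgCl2 levels (1–48 mM), then stopped with EDTA. Products were reverse transcribed from a substrate-complementary primer, PCR-amplified and sequenced (HiSeq 4000). Fitness is a variant's read proportion after selection over that before, normalised to wild type.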

| Variant | reverse-splicing fitness |
| --- | --- |
| A111U A120G A145C C150A U176G | 0.00407 |
| A111U A120G A145C C150A U176C | 0.0112 |
| A111U A120G A145C C150A U176A | 0.00785 |
| A111U A120C C169G U176C | 0.0168 |
| A111U A120C C169G U176G | 0.00402 |
| A111U A120C C169G U176A | 0.0144 |
| A111U A120G A145C C150G U176C | 0.0143 |
| A111U A120G A145C C150G U176A | 0.00783 |
| A111U A120G A145C C150G U176G | 0.00302 |
| A111U A120C A145G C169U U176C | 0.046 |
| A111U A120C A145G C169U U176G | 0.00517 |
| A111U A120C A145G C169U U176A | 0.0335 |
| A111U A120G A145U C150A C169A | 0.0164 |
| A111U A120G A145U C150A C169G | 0.0206 |
| A111U A120G A145U C150A C169U | 0.0181 |
| A111U A120C A145U C150U C169U U176A | 0.0306 |
| A111U A120C A145U C150U C169U U176G | 0.0049 |
| A111U A120C A145U C150U C169U U176C | 0.0381 |
| A111U A120G A145C C150U C169A U176G | 0.00531 |
| A111U A120G A145C C150U C169A U176C | 0.00998 |
| A111U A120G A145C C150U C169A U176A | 0.012 |

| Variant | reverse-splicing fitness |
| --- | --- |
| A111U A120G A145U C150U C169A U176C | 0.0207 |
| A111U A120G A145U C150U C169A U176A | 0.0184 |
| A111U A120G A145U C150U C169A U176G | 0.00508 |
| A111U A120C C150U U176A | 0.154 |
| A111U A120C C150U U176C | 0.204 |
| A111U A120C C150U U176G | 0.0321 |
| A111U A120G A145G C150G C169G U176G | 0.00518 |
| A111U A120G A145G C150G C169G U176A | 0.00971 |
| A111U A120G A145G C150G C169G U176C | 0.0108 |
| A111U A120G A145G C169U U176C | 0.0538 |
| A111U A120G A145G C169U U176G | 0.00601 |
| A111U A120G A145G C169U U176A | 0.0467 |
| A111U A120C C150U C169G | 0.00855 |
| A111U A120C C150U C169A | 0.0121 |
| A111U A120C C150U C169U | 0.0972 |
| A111U A120G A145C C150A C169A U176A | 0.0144 |
| A111U A120G A145C C150A C169A U176G | 0.004 |
| A111U A120G A145C C150A C169A U176C | 0.00665 |
| A111U A120C A145U C169U U176G | 0.00586 |
| A111U A120C A145U C169U U176C | 0.0439 |
| A111U A120C A145U C169U U176A | 0.0319 |

| Variant | reverse-splicing fitness |
| --- | --- |
| A111U A120G A145G C150U C169A U176C | 0.0274 |
| A111U A120G A145G C150U C169A U176G | 0.00525 |
| A111U A120G A145G C150U C169A U176A | 0.0224 |
| A111U A120G A145G C150A C169G U176C | 0.0294 |
| A111U A120G A145G C150A C169G U176A | 0.0198 |
| A111U A120G A145G C150A C169G U176G | 0.00526 |
| A111U A120G A145G C169G U176C | 0.0601 |
| A111U A120G A145G C169G U176A | 0.0455 |
| A111U A120G A145G C169G U176G | 0.00492 |
| A111U A120C C169U U176C | 0.0473 |
| A111U A120C C169U U176G | 0.00626 |
| A111U A120C C169U U176A | 0.0322 |
| A111U A120C A145G C150U C169G U176G | 0.00528 |
| A111U A120C A145G C150U C169G U176C | 0.0168 |
| A111U A120C A145G C150U C169G U176A | 0.0125 |
| A111U A120C C169G | 0.0098 |
| A111U A120C C169U | 0.174 |
| A111U A120C C169A | 0.0124 |
| A111U A120C A145U C150G C169G U176G | 0.00491 |
| A111U A120C A145U C150G C169G U176A | 0.00683 |
| A111U A120C A145U C150G C169G U176C | 0.005 |

| Variant | reverse-splicing fitness |
| --- | --- |
| A111U A120G A145G C150A C169U U176A | 0.0247 |
| A111U A120G A145G C150A C169U U176C | 0.024 |
| A111U A120G A145G C150A C169U U176G | 0.00606 |
| A111U A120C A145U C150U C169A U176C | 0.00725 |
| A111U A120C A145U C150U C169A U176G | 0.0056 |
| A111U A120C A145U C150U C169A U176A | 0.0134 |
| A111U A120G A145C C150A | 0.0115 |
| A111U A120G A145C C150G | 0.0213 |
| A111U A120G A145C C150U | 0.0388 |
| A111U A120C C150G U176G | 0.00366 |
| A111U A120C C150G U176C | 0.0262 |
| A111U A120C C150G U176A | 0.0104 |
| A111U A120C A145U C150A C169G U176A | 0.0112 |
| A111U A120C A145U C150A C169G U176G | 0.00518 |
| A111U A120C A145U C150A C169G U176C | 0.0106 |
| A111U A120G A145G C150A U176C | 0.0274 |
| A111U A120G A145G C150A U176A | 0.0138 |
| A111U A120G A145G C150A U176G | 0.00712 |
| A111U A120G A145C C150U C169U U176G | 0.00469 |
| A111U A120G A145C C150U C169U U176A | 0.0278 |
